This passage reports phosphosites on dephosphorylated recombinant APC/C after in vitro phosphorylation, by mass spectrometry results from article PMC11747444.

The experiment has as its target recombinant strep-tagged apo-APC/C, dephosphorylated (UniProt Q9H1A4).
UniProt Q9H1A4, sequence (Q9H1A4 whole entry, looked up): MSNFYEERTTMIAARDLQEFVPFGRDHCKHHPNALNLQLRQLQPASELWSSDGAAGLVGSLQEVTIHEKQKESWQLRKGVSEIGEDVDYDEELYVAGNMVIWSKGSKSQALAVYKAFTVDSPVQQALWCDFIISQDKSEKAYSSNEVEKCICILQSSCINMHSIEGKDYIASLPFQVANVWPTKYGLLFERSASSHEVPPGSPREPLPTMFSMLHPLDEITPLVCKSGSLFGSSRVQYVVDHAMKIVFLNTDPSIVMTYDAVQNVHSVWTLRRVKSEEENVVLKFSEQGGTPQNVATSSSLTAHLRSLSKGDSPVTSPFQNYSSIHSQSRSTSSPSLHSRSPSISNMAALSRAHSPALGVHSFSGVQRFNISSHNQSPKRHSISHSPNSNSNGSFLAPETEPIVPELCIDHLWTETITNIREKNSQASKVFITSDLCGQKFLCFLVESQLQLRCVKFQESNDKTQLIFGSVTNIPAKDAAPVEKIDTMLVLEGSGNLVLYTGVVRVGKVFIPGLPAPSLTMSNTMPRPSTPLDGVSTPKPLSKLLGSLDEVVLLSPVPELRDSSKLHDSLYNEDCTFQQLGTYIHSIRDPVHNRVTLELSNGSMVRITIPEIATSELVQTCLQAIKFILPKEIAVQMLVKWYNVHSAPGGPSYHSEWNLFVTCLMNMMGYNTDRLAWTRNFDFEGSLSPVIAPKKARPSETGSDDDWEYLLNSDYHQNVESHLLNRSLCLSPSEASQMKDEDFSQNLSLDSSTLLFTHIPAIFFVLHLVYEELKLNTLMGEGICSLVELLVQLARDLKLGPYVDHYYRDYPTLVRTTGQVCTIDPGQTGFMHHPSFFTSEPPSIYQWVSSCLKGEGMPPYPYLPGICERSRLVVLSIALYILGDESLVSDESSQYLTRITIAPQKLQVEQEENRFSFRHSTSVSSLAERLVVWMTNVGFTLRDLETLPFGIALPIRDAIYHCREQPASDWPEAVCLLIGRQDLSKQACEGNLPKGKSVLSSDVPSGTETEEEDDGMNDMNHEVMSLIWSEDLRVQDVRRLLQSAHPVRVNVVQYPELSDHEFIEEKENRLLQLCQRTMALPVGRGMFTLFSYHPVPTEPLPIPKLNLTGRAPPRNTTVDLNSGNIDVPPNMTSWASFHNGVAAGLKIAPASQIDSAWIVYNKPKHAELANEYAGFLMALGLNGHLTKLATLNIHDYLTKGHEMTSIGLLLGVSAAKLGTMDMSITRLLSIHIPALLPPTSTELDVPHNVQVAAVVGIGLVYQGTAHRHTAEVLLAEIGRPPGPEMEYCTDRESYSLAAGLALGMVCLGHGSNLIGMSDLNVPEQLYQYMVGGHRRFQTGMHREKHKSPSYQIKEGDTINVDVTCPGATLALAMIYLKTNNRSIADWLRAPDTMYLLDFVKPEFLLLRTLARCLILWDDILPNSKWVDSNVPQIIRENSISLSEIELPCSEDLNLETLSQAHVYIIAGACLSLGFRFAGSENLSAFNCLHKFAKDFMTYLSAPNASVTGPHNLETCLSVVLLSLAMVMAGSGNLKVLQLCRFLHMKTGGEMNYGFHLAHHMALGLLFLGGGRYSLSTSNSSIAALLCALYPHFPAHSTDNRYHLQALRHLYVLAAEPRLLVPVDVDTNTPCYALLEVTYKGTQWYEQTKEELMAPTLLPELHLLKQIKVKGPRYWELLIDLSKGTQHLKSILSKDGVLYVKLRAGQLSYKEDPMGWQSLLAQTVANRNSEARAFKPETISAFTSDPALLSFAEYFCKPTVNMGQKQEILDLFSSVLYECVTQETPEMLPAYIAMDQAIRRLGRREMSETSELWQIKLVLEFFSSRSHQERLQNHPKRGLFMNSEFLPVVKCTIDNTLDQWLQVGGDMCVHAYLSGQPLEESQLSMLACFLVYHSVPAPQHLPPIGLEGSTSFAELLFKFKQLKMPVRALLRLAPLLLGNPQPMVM

On to “CDK1/CKS1/cyclin B1^wt complex (CCC^wt) (from UniProt P06493 1-297; P61024 1-79; P14635 1-433)”, for which the phosphosites on dephosphorylated recombinant APC/C after in vitro phosphorylation, by mass spectrometry was 28 phosphosites.
